One experiment deals with T1, CD3抗原 (SEQ ID NO:1 合成多肽).
T1 construct: KLH/OVA conjugation is stated for immunisation only; also called CD3的多肽
T1 peptide: KGQRDLYSGLNQRRI
The experiment can be described thus: ELISA screening of hybridoma clones on CD3 antigen (SEQ ID NO:1).

The target of a further experiment is T2, CD3蛋白 (表达CD3蛋白的细胞).
T2 construct: whole, on cells; also called 表达CD3蛋白细胞
The experiment in a line: flow cytometry on CD3-expressing cells, against blank control without antibody.

T2 sequence (P07766 23-207): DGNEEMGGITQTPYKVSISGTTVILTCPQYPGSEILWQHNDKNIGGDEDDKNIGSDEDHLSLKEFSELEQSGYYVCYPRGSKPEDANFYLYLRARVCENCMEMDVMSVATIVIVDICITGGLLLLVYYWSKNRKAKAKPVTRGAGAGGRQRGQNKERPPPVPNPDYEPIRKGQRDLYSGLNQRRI

B1: 230B2F6抗CD3重组兔单克隆抗体 (antibody, V domains shown)
VH: QSLEESGGRLVTPGTPLTLTCTASGFSLNDYWMSWVRQAPGKGLEWIGIIIRGGTTWYANWVKGRFTISKTSTTVDLKMTSPTTEDTATYFCARIGGGNTGFNLWGPGTLVTVSS
VL: AQVLTQTPSSVSEPVGGTVTINCQASENIYISLAWYQQKPGQPPNLLIYDASDLASGVPSRFSGSGSGTEFTLTISGVQCEDAATYYCQSYNYSSVTFGGGTEVVVK
notes: also called 230B2F6抗体; 230B2F6抗CD3单克隆抗体
Consider B1, for which the binding result in the experiment with CD3抗原 (SEQ ID NO:1 合成多肽) is recorded as “binds”. The “fold increase of MFI over blank control” value with CD3蛋白 (表达CD3蛋白的细胞) amounted to 1070 fold.

Source of the values: patent CN115073602A (SUZHOU ABCARTA MEDICAL TECH CO LTD, dated 2022).
